Experimental data taken from article PMC8204342, “Dual arginine recognition of LRRK2 phosphorylated Rab GTPases” (Biophysical Journal, 2021).

B1: RILPL2-GFP WT, full length [human] / HA-Rab8a in MLi-2 treated cells (LRRK2 inhibited) [Homo sapiens (Human).] (parent)
chain 1: MEEPPVREEEEEEGEEDEERDEVGPEGALGKSPFQLTAEDVYDISYLLGRELMALGSDPRVTQLQFKVVRVLEMLEALVNEGSLALEELKMERDHLRKEVEGLRRQSPPASGEVNLGPNKMVVDLTDPNRPRFTLQELRDVLQERNKLKSQLLVVQEELQCYKSGLIPPREGPGGRREKDAVVTSAKNAGRNKEEKTIIKKLFFFRSGKQT
chain 2: MAKTYDYLFKLLLIGDSGVGKTCVLFRFSEDAFNSTFISTIGIDFKIRTIELDGKRIKLQIWDTAGQERFRTITTAYYRGAMGIMLVYDITNEKSFDNIRNWIRNIEEHASADVEKMILGNKCDVNDKRQVSKERGEKLALDYGIKFMETSAKANINVENAFFTLARDIKAKMDKKLEGNSPQGSNQGVKITPDQQKRSSFFRC

Variants of: B1
Test: co-immunoprecipitation (GFP binder Sepharose) with LI-COR immunoblot quantification
Conditions: with HA-Rab8a in MLi-2 treated cells (LRRK2 inhibited) [Homo sapiens (Human).]; HEK293 cells, Flag-LRRK2[Y1699C] + HA-Rab8a co-expressed; 500 nM MLi-2 for 90 min; parent: 0.11; read off a plot

Row | ratio to parent | Variant
1 | 0.11 | chain 1 P128A
2 | 0.12 | chain 1 T126A
3 | 0.12 | chain 1 D127N
4 | 0.13 | chain 1 D127A
5 | 0.09 | chain 1 D124N
6 | 0.06 | chain 1 D124A
